{"source": "paper PMC7145681", "about": "(Nucleic Acids Research, 2019)", "binders": {"B1": {"name": "dTCTTCC (ssDNA)", "DNA": "TCTTCC"}, "B2": {"name": "dT6 (ssDNA)", "DNA": "TTTTTT"}, "B3": {"name": "dT12 (ssDNA)", "DNA": "TTTTTTTTTTTT"}, "B4": {"name": "SP_0782 (7–79) W30A mutant (domain or fragment, Streptococcus pneumoniae, UniProt A0A0H2UPA7 7-79, looked up)", "chain": "KKMAEFTFEIEEHLLTLSENEKGATKEINRVSFNGAPAKFDIRAWSPDHTKMGKGITLSNEEFQTMVDAFKGN"}, "B5": {"name": "SP_0782 (7–79) wild-type from Streptococcus pneumoniae (domain or fragment, UniProt A0A0H2UPA7 7-79, looked up)", "chain": "B4 chain with A24W"}}, "key": {"SP_0782 [1]": {"target": "T1, SP_0782 (Streptococcus pneumoniae, UniProt A0A0H2UPA7 7-79)", "test": "X-ray crystallography"}, "SP_0782 [2]": {"target": "T1, SP_0782", "test": "ITC"}, "SP_0782 [3]": {"target": "T1, SP_0782", "test": "ITC", "remark": "listed apart in the source"}, "SEC-MALS": {"target": "the molecule itself", "test": "SEC-MALS"}}, "note": "Numbering of substitutions follows the chain as printed. In names and notes the source's numbering stands. Read-outs that look alike come from different tables or passages of the source.", "data": [{"binder": "B1", "values": [{"measurement": "binding result", "setting": "SP_0782 [1]", "result": "binds"}]}, {"binder": "B2", "values": [{"measurement": "Kd", "setting": "SP_0782 [2]", "result": 26.8, "unit": "µM"}]}, {"binder": "B3", "values": [{"measurement": "Kd", "setting": "SP_0782 [3]", "result": 0.0206, "unit": "µM"}]}, {"binder": "B4", "values": [{"measurement": "stoichiometry N", "setting": "SEC-MALS", "result": 2}]}, {"binder": "B5", "values": [{"measurement": "stoichiometry N", "setting": "SEC-MALS", "result": 2}]}]}
